Test results published in US8980543B2, “Method of measuring enzyme activity by multi-dimensional nuclear magnetic resonance” (Canon Kabushiki Kaisha, priority 2007, dated 2015).

Target: T1, MMP2 (Homo sapiens, UniProt P08253)
T1 construct: purchased R&D systems Inc
T1 sequence (P08253 110-660): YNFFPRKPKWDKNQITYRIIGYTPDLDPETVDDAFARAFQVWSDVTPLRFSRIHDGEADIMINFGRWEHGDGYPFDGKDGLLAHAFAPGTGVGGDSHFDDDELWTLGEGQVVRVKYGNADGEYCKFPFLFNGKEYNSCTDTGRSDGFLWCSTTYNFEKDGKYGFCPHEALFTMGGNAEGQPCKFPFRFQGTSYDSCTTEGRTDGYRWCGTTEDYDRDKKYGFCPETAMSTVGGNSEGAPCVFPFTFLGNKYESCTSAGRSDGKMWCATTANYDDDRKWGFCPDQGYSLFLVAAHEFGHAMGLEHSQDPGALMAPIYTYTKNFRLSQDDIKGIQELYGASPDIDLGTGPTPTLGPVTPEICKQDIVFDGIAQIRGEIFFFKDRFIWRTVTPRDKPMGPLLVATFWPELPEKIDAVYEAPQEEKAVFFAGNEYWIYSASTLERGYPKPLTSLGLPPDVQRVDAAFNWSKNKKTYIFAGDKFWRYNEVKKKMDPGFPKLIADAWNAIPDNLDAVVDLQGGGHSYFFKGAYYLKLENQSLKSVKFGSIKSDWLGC
Experiment: Reaction between MMP2 and substrate peptide-probe, cleavage monitored by HPLC and MALDI-TOF-MS
Format: biochemical
Conditions: 1 mM peptide, MMP2 1 μg, TCNB buffer pH 7.5, room temperature (25° C.), 18 hours; fragments GPLG and VRGK
Experimental: A TCNB buffer (50 mM Tris, 10 mM CaCl2, 150 mM NaCl, 0.05% Brij 35, pH 7.5) was used as a buffer for an enzymatic reaction. A MMP2 precursor (R&D systems Inc.) was activated in 1 mM 4-aminophenylmercury acetate (APMA, manufactured by Sigma) in accordance with the protocol attached to the product to obtain activated MMP2 (hereinafter, simply referred to as MMP2). MMP2 (1 μg) was dissolved in 0.9 mL of the reaction buffer. To this solution, 780 μg of the substrate peptide synthesized above was added to obtain a solution containing a peptide in a concentration of 1 mM. The resultant solution was incubated at 25° C. for 18 hours.
The peptide was cleaved by an enzyme, MMP2. The peptide solution before and after the reaction with the enzyme was monitored by HPLC analysis (A=H2O/0.1% TFA and C═CH3CN/0.1% TFA; initial 5 minutes: 0% C, 5 to 35 minutes: 0 to 30% C, using an YMC HPLC column, YMC-Pack ODS-A (AAl2S05-2546WT) manufactured by YMC and having a length of 250 mm and an inner diameter of 4.6 mm; a particle diameter of 5 μm, a pore diameter of 12 nm, a flow amount of 0.8 mL/minute; and detection was made at UV of 220 nm). HPLC elution profiles of the peptide solution (MMP−) before treated with the enzyme and the peptide solution (MMP+) after treated with the enzyme are illustrated in FIG. 5.
The peak was separated and subjected to MALDI-TOF-MS analysis. […]

cleavage of the isotope-labeled peptide by MMP2: completely cleaved
Sequence: GPLGVRGK
